# Target: Leukocyte Function Antigen-1 (LFA-1), on cells (Jurkat T cells, human T cells, PBMC) (human) (UniProt P20701)
# Experiment: cell-based or functional assay
# Sequence of Leukocyte Function Antigen-1 (LFA-1), on cells (Jurkat T cells, human T cells, PBMC) (human) (P20701 26-1170, chain 1 of 2): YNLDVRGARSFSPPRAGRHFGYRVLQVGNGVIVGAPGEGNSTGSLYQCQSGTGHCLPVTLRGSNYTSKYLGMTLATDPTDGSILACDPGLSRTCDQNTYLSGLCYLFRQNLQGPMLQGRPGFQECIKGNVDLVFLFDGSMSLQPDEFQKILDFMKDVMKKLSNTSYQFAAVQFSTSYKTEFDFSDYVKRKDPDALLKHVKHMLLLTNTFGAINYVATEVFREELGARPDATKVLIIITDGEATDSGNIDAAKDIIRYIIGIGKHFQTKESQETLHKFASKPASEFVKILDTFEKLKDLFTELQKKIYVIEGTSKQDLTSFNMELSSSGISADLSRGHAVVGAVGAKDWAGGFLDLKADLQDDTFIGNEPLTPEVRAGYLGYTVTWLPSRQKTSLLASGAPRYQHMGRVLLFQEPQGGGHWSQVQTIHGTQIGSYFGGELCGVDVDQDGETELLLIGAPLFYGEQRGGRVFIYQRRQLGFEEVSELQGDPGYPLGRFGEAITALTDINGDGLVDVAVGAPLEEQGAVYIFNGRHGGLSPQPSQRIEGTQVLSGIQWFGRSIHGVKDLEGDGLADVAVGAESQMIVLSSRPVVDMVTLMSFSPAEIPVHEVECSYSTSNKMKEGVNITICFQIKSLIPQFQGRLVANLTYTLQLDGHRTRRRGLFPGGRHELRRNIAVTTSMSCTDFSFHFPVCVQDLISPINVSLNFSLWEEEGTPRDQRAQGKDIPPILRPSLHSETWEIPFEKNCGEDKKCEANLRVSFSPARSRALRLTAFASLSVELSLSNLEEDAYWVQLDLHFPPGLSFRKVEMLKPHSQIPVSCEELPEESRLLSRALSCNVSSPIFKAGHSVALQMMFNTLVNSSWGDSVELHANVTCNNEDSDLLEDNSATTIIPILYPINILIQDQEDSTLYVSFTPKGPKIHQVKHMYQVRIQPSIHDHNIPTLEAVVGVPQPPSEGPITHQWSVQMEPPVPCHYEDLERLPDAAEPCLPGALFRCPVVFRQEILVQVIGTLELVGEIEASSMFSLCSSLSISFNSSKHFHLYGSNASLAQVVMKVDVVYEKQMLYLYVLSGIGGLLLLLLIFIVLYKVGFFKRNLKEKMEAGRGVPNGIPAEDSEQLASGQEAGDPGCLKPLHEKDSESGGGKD
# Sequence of Leukocyte Function Antigen-1 (LFA-1), on cells (Jurkat T cells, human T cells, PBMC) (human) (P05107 23-769, chain 2 of 2, further chain): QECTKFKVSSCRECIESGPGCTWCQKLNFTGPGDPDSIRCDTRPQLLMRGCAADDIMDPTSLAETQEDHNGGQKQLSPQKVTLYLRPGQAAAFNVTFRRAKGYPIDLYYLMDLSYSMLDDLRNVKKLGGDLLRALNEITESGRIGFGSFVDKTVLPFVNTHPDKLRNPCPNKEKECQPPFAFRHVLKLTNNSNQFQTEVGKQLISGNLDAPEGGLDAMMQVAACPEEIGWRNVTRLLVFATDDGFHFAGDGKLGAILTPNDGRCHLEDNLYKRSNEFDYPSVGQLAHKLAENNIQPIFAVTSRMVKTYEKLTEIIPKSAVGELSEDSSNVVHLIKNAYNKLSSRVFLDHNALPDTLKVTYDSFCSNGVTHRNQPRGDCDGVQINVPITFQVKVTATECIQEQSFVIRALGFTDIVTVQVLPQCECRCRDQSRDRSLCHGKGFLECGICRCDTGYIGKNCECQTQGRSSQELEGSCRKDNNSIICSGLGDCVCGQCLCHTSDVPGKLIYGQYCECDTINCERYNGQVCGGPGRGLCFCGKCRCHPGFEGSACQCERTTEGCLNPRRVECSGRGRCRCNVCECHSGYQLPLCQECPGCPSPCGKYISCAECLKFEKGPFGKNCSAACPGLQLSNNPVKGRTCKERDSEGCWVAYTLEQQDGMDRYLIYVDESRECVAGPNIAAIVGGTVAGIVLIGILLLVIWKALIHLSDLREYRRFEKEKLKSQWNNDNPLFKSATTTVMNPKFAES
# Sequence of recombinant human ICAM-1-FC (P05362 28-480 limits assumed): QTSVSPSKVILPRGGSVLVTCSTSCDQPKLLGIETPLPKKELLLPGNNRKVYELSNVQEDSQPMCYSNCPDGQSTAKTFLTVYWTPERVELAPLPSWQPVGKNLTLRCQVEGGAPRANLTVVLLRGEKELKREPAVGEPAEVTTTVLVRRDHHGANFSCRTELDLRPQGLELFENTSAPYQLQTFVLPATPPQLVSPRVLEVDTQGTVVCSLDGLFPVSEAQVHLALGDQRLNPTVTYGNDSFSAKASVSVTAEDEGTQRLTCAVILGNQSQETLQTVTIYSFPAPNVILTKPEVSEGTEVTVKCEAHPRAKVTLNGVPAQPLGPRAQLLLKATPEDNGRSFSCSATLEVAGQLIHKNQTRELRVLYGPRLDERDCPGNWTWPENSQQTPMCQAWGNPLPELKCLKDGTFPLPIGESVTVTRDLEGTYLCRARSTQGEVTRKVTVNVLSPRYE
substance,measurement,value
recombinant human ICAM-1-FC (from UniProt P05362 28-480) (Fc fusion),"frequency of the perforin negative population, CD56+CD8med cells",13.7%
same,"granzyme-A negative population, CD56+CD8high cells",4.12%

# Source: patent publication US20150241442A1
